The record followed here is PMC4742958, “NuSAP governs chromosome oscillation by facilitating the Kid-generated polar ejection force” (Nature Communications, 2016).

In this experiment the target is T1, glutathione S-transferase (GST)-tagged Kid recombinant protein (human, UniProt Q14807 1-665).
T1 construct: cDNA amplified from a cDNA library extracted from HEK 293T cells, inserted into pGEX-4T-1; Vector pGEX-4T-1; The discussion calls the Kid of the gliding assay (Kid-GFP-His, another construct) full-length; nothing is said of the limits of GST-Kid; also called GST-Kid; source: E. coli BL21 (DE3) pLysS, purified (glutathione-Sepharose 4B)
T1 sequence (looked up): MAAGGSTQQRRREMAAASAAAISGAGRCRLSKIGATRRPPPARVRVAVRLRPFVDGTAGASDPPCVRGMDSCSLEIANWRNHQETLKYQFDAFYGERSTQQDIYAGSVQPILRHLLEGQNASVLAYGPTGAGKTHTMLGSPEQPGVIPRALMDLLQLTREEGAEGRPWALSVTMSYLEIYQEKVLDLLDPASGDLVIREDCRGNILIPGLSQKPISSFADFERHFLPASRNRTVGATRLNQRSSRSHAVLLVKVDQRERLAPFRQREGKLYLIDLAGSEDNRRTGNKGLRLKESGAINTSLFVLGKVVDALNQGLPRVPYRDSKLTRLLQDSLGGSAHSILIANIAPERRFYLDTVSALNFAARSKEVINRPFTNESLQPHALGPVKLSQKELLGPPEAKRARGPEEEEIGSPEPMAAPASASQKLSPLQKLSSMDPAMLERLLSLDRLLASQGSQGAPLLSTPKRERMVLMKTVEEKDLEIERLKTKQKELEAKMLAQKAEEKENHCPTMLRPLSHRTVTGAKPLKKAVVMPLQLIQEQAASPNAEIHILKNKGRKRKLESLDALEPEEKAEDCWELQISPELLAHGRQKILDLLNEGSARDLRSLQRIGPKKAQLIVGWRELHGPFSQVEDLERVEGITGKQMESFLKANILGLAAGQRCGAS
In words: pull-down; GST or GST-Kid (2 μg) on glutathione beads with 2 μg purified His-NuSAP; 50 mM Tris-HCl pH 7.0, 150 mM NaCl, 1 mM EGTA, 0.5% Triton X-100; 3 h at 4 °C; NuSAP blotted with anti-NuSAP antibody. The note with it: both partners purified.

B1: His-tagged NuSAP recombinant protein (natural protein, human (cDNA library from HEK 293T cells), UniProt Q9BXS6 1-441, looked up)
chain: MIIPSLEELDSLKYSDLQNLAKSLGLRANLRATKLLKALKGYIKHEARKGNENQDESQTSASSCDETEIQISNQEEAERQPLGHVTKTRRRCKTVRVDPDSQQNHSEIKISNPTEFQNHEKQESQDLRATAKVPSPPDEHQEAENAVSSGNRDSKVPSEGKKSLYTDESSKPGKNKRTAITTPNFKKLHEAHFKEMESIDQYIERKKKHFEEHNSMNELKQQPINKGGVRTPVPPRGRLSVASTPISQRRSQGRSCGPASQSTLGLKGSLKRSAISAAKTGVRFSAATKDNEHKRSLTKTPARKSAHVTVSGGTPKGEAVLGTHKLKTITGNSAAVITPFKLTTEATQTPVSNKKPVFDLKASLSRPLNYEPHKGKLKPWGQSKENNYLNQHVNRINFYKKTYKQPHLQTKEEQRKKREQERKEKKAKVLGMRRGLILAED
notes: NuSAP; cDNA amplified from a cDNA library extracted from HEK 293T cells, inserted into pET28b; Vector pET28b; also called His-NuSAP; source: E. coli BL21 (DE3) pLysS, purified (Ni-NTA agarose)
As for B1, the binding result was “binds”.
